Here are results for four substances from paper PMC6697693.

The target of the experiment is Δ258-UNC-23, stable fragment of UNC-23, fluorescently labelled (C. elegans).
Chain of Δ258-UNC-23, stable fragment of UNC-23, fluorescently labelled (C. elegans) (main, as listed by the source mutant): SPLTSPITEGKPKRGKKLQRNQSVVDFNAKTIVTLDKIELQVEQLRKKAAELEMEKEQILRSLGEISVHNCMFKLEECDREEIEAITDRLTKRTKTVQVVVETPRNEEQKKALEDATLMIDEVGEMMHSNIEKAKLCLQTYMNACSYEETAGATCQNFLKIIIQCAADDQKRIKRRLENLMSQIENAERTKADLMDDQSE

Chain of wild type Hsc70 (nematode Hsc70, HSP-1) (P09446 whole entry): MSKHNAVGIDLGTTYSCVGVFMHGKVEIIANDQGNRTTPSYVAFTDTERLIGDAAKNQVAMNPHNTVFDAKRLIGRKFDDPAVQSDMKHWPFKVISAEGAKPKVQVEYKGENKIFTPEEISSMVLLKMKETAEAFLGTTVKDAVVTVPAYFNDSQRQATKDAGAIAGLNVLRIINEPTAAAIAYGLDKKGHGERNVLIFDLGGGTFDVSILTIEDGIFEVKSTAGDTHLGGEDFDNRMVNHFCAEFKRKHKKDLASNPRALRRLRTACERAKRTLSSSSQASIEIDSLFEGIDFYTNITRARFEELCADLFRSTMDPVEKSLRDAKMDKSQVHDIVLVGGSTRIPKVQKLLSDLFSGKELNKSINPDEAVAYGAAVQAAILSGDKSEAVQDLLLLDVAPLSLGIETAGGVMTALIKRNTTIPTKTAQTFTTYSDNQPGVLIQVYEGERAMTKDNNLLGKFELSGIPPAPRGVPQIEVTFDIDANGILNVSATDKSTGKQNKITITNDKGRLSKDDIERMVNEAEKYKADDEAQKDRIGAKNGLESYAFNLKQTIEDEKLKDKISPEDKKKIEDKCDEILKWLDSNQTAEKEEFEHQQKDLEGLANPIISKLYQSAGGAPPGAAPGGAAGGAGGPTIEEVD

Regarding “Hsc70 A379V (from UniProt P09446 1-640) (natural protein)”, the ATPase stimulation (stimulated minus unstimulated turnover), 3 µM Hsc70 A379V with 3 µM UNC-23 stood at 0.02 min⁻¹.

The substance “Hsc70 D233N (from UniProt P09446 1-640) (natural protein)” showed an ATPase stimulation (stimulated minus unstimulated turnover), 3 µM Hsc70 D233N with 3 µM UNC-23 of 0.12 min⁻¹. Consider “Hsc70 D384N (from UniProt P09446 1-640) (natural protein)”, for which the ATPase stimulation (stimulated minus unstimulated turnover), 3 µM Hsc70 D384N with 3 µM UNC-23 was 0.24 min⁻¹. Substance “wild type Hsc70 (nematode Hsc70, HSP-1) (from UniProt P09446 1-640) (natural protein)” had an ATPase stimulation (stimulated minus unstimulated turnover), 3 µM Hsc70 with 3 µM UNC-23 of 0.18 min⁻¹.
